Laboratory results from the supplement of paper PMC9170038.

System: K4 kissing-loop RNA reporter
Test: apparent KD of K4 kissing-loop reporter; higher = weaker reporter binding
Conditions: Eterna round: R107
Method: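 RNA-MaP round R107: designed RNA switches with theophylline, tryptophan, arginine or FMN aptamers are transcribed on-chip within common flanks. They are titrated with a labelled K4 kissing-loop RNA reporter in RNA-MaP buffer (100 mM Tris pH 7.5, 80 mM KCl, 4 mM MgCl2), without ligand or with the indicated ligand. Median apparent KD per design.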

[1] = input ligand: theophylline 20 uM
[2] = input ligand: tryptophan 2.4 mM
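Note: bound reporter read as fluorescence of individual clusters on recovered sequencing chips by microscopy, with normalized cluster intensities fitted with a binding model.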

Sequence	apparent KD of K4 kissing-loop reporter (input ligand: FMN 200 uM) [nM]	apparent KD of K4 kissing-loop reporter (input ligand: arginine 13.2 mM) [nM]	apparent KD of K4 kissing-loop reporter (input ligand: none) [nM]	apparent KD of K4 kissing-loop reporter [1] [nM]	apparent KD of K4 kissing-loop reporter [2] [nM]
AUAUAGUGAUGUUAUAUAAUAAUCUCUGAUACCAGUCAUUUAGAAGACCCUUGGCAGCAGCUAUAUAUAGGGAAACAAUACAUAA [AstrosExytheA#1]	739	649	709	925	491
GUUAUCACGCGAAGGAGCGCGGAGCGAUAACGCAGUGAUGUUGCGUUAAACGUAAUAUAAUCGCAGGUAGGUCGCGCGUGAUACC [Arg B Ex t6]	104	80.2	94.2	82.1	95.6
AACCAGCUUACUGUAAGCUGGUUGCUGGAUACCAGCUCGGAAACGAGCCCUUGGCAGCCAGAACUUGCAGUGAUGUUGCAAGUAA [Design11]	150	178	157	120	216
ACAGAGUGAUGUUUUGUAAAGAUCUUUGAUACCAGCGCCAGAAAUCGCCCUUGGCAGCAAGCCGUACAUACGUUGAUUGAUCCAC [theeternabot_exclusion_KL_Theo_A_14]	738	694	926	758	577
AAAUAUAGUGAUGUUAUAUAUAUAUGUGAUACCAGAGAAAAGAAACUCCCUUGGCAGCACGAGAGAGAAUUUUUUUUUUAUAUAU [AstrosSSTheA#2]	370	409	498	471	328
UGACUGGACUGAAGGAGCGUUGAAGGAGCGUAAGCAGUGAUGUUGCUUACAGGUAGGUCGCAGCAGGUAGGUCGCAGUCUAGUCU [ArgBS 28 #DoubleAptamer #SwitchBubble]	134	102	122	115	122
GGUUGCAGCCCUGCAUCGUGGGUUUAGAGUAAGGAUAUUCGCCAAGGAAGAAGGUACUCUGCAUUGAGUGAUGUUCAAUAAGAUG [theeternabot_sameState_KL_FMN_A_30]	109	176	146	166	104
GAGGUUUACGUAGGAUAUCGGUAAUGAGUAGAUGGAGUGAUGUUCCGAAAUUGAAUAGGAGAUGGGCGAGAAGGGCGGAUUAAGC [whbob_SS_FMNB__2th204]	82.1	91.6	77.4	110	58.1
AAGAAGAAUGGAAGGAGCGAGCAGAUAUAACCAGUGAUGUUGGAAAGCCUUAUUGCUUAAGCUCAGGUAGGUCGCCAAGAAGAGA [whbob_Ex_Arginine_B_2t152]	179	159	179	192	184
AAUAUACAGGGAAGGAGCGUCGUCCAGUGAUGUUGGAGUUAAAUACCAGUGAUGUUGGUUAGGCAGGUAGGUCGCCCUAAAGUAU [KL-XARG-B15]	93.6	68.3	86.7	85.1	73.9
GUUAAGUCGCGAAGGAGCGCGAACUAACAACGCAGUGAUGUUGCGUUGUACGUAGUAUAAUCGCAGGUAGGUCGCGCGACAGGCC [Arg B SS t16]	116	85.5	98.4	81	92.3
AUAAACUUGCAGUGAUGUUGCAAGUAAGACUAGGAUAUCAGGAAGCUGAGAAGGAGUCAUCUCCUUCAAACAUCACUAUGAAGGA [whbob_SS_FMNA__2th177]	413	245	289	328	253
UGUCAUUGGUCUGAUACCAGUUGAUAAACUGGAGUGAUGUUCCAAUCGAGAUAACUCGACAACCCUUGGCAGCAGACCGAUGACU [TheoBS 15 #SwitchBubble 13 #StaticStem]	182	173	176	128	168
GGCACGGGCUCGGCCGCCACUCCCGCGGGUCGUAAGGUCCGCUACUGAGUGAUGUUCGGUUGGAGGAGGACCGGGAGCCCGUGCC [#2 Exclusion - Tryptophan B Attempt #20 (HarryS)]	149	220	143	145	119
UUAUAUUUUAUAUUUAGUAGAGCUCUCACUCGAGGACCGGUACGGCCGCCACUCGAGUGAUGUUCGAGUGGGAGAGCUCUACAUU [AK3.2 EXC Tryptophan A]	118	104	99.8	116	315
ACACUAUCGUCAUAGACGGUAGUGACAUCUCAGGAUAUAAGUGAUGUUAGAAGGGAGAAAAUCUUAGGUAUCGAAUAGAUACCAA [FmnA 8 #K4BetweenAptamer #OpenEnded]	415	1100	1270	821	1380
UCUUUUGUAUAUGAUACCAGCAGUGAGAGACAGGAAGUAUAGUGAUGUUAUAUGAGAGAAUGCCCUUGGCAGCGUGUGCGGUGGG [SSTheophylB.U]	151	146	114	178	108
AUAAAUAAUAAUGACUGAGAGUUUGGUGAGCGAGGACCGGUACGGCCGCCACUCGUACAUGAGUGAUGUUCUUGUAUGAGUCAGA [KL-XTryp-A6 #analogue]	127	97.6	95.6	97.6	105
UUUAUUAAGACGGCCGCCACUGAAUCAUAGUGAUGUUAUGAUAAAAUUUUAGAUAAUAAUAACAGCAGGACCGGGUCAAUUAUUA [JR_SSTryptoB_Sub015]	200	173	208	191	182
AAUGCAUUGUGAAGGAGCGCGAUAGGCAGUGAUGUUGCUUACAUUUUAUUAUGUUUUAAAACGCAGGUAGGUCGCACUUUGCAUA [JR_Nu_SSArginiB_Sub030]	187	163	183	193	162
CGGAUGUAGUGAUGUUAUAUUAGAUGUAGACGAGGACCGGUACGGCCGCCACUCGUGAUGGCUGCUAGCACGUUUCGAGGUUUGC [ExTryptoA.Cp]	515	624	604	438	489
GUAUGUGGAAACACGUACUUAUAUCCUAGGCAGGAUAUGCGGAAACGCAGAAGGGCCACCGGCGAGAAAAUCCAGUGAUGUUGGA [Ex FMN A 7]	260	248	244	238	249

Sequence	apparent KD of K4 kissing-loop reporter (input ligand: FMN 200 uM) [nM]	apparent KD of K4 kissing-loop reporter (input ligand: arginine 13.2 mM) [nM]	apparent KD of K4 kissing-loop reporter (input ligand: none) [nM]	apparent KD of K4 kissing-loop reporter [1] [nM]	apparent KD of K4 kissing-loop reporter [2] [nM]
GUGCGGCUAGUGAUGUUGGUUGCGUGGGAAGGAGCGCAGAAACAUGCAGGUAGGUCGCCCACAUCUCGGAUAAGAGAUUAAUUCC [Arorso]	291	153	252	262	244
GUAUCGCUAGGAGGAUAUUCCAUUUUACAUAUAAAUGGAUAUGCGGAGUGAUGUUCCGAUUUACGGGAAGAAGGCCUAGUGAUAC [FMN B 20]	138	220	219	256	208
ACCUUAUUUGCCAGUGAUGUUGGACAGGAAGGAGCGGGCAUAAGCCCAGGUAGGUCGCCUGUCAACUUUCUUAUAGCCCAAAGGU [KL-XArg-A18]	308	253	396	314	294
UGCUCACAUAGAGGAUAUCUCAUAUGAGACAGUGAUGUUGUCUCAUAUAGACAUGUAAGUCUCAUGAGAGAAGGCUGUGUGAGCA [FMN B SS t8]	140	106	117	99.3	113
GCUAUGGUAGGAAGGAGCGCUUAAUUAUUAAUAAGAGUGAUGUUCGAUAAUAAAUAUUUAUAGCAGGUAGGUCGCCUACUAUAGC [KL-SSArg B22]	155	168	174	243	104
CCAUCGCUAUUCGAUACCAGCUACUUAGUGAUGUUAAGUUAAAAUUAAUUGUAGAUUAAAAGCCCUUGGCAGCGAAUAGUGAUGG [Theophylline B K4 20]	159	141	154	119	152
AAGUGUGUGGCGGCCGCCACUAGAAUCCAGUGAUGUUGGAGAUAUCAGGUAACUGAUAUCCAACAUAGGACCGGGCCAUAUAGAA [Same State - Tryptophan B (Freestyle 11)]	152	104	144	108	91.9
GGGAGUAGUGCGGCCGCCACUGAGAAAGAAGAAGAAUAUAGUGAUGUUAUAUAGGAAAUAAAGAACAGGACCGGGCAUUAGAUUU [SSTRyptB.N]	269	216	244	210	149
UGUGAUGUGUAGUGUUAUGUUUUGAGGGAUACCAGAGUCUUUUUAUUCCCUUGGCAGCUUGAGUGAUGUUUGAUGCUGUUGUUGU [dvccmullin]	463	342	412	431	339
GAUUGUGAUGGAAACAUCGCAAUCUCUGAAGGAGCGCGUGAAAACGCAGGUAGGUCGCAGGACGACUUUGACAGUGAUGUUGUCG [Ex Arginine A K4 4]	186	223	201	216	180
GCGGCCCAGACGGAUACCAGUGACCCGCUGGGAACCGCGGGCCCAGAGUGAUGUUCGGGACACCCUUGGCAGCCGCCUGGGUCGC [#2 Same State - Theophylline B Attempt #19 (HarryS)]	732	293	491	606	448
AAAUCGUUCAGAAGGAGCGUGGAUUAUUCUUAUAUAUUUAUUACGAGUGAUGUUCGUAAUUCACAGGUAGGUCGCUGAUCGAUAA [JR_ExcArginiB_Sub004]	106	126	112	130	108
UUUAUAGUGACGGCCGCCACUAUAUUAAUGUUUAGGUUAGAGUGAUGUUUUGAUUAAUAUUUUUAUAGGACCGGGUUAUAUGUUU [ggbvmullin]	669	488	632	515	591
GAAAGAAAGUAUGAUACCAGACACCCGAGUGAUGUUCGGAACAGUGUGUUGUUCUUUUAAGUCCCUUGGCAGCAUAAAAGAAAAG [whbob_SS_Theo_B_sa86]	135	143	151	171	110
UGAAAUCGAAUUCCGCGUGCAACGCCAGUAAAGGAUAUCAUCACACUGAGAAGGUUACGAAGCGGAGUGAUGUUCCGCUCUAUCC [theeternabot_sameState_KL_FMN_A_50]	105	112	120	114	98.5
UUUAUAAAGUCGGCCGCCACUGGAUUUAUAUUUGUUUCGUCUGGAUCAAAGUGAUGUUUUGAGUCCAGGACCGGGACAUUUGUUA [whbob_Ex_Tryp_B_w37]	80.7	71.1	74.6	69.1	93.2
AGUCCACUCUAAAGAGUGGACCUAAGGGAUACCAGUGAUGUUGGUCACCCUUGGCAGCCCUCUGUCAUCGAUAAAGAUGGCAGCA	132	114	136	149	145
AAACAUUGGUCGGAUACCAGCUUGAUCGGAAACGAUCUGCUGGAGUGAUGUUCCAAGUAAAGCCCUUGGCAGCCGACCGAUGAAA [MAT - Same State Theophlline B - Mod of Eli - D17]	133	62.8	55.6	143	74.5
UAGCGUAUUGAAGGAUAUUGCCUAGGAGUGAUGUUUGUAGAAAAUUUCCAACGGAACGAAUGUUAGCAAGAAGGUCAAUGGCCUU [theeternabot_exclusion_KL_FMN_B_40]	230	239	404	456	281
AUCACAGUGAUGUUGUGAUAUACUUCAGAUACCAGACUAGUGCUAGUCCCUUGGCAGCUGAACUCAGCAGCACCACUAGCACUCG [Theo A Ex t6a]	153	130	139	144	134
CCUGAGUGAUGUUUAGGAGGCCCGAUAGAUACCAGAAAUACUGCGUUCCCUUGGCAGCUACGCGGACGGAAGACUACGUUACACG [theeternabot_exclusion_KL_Theo_A_16]	390	222	324	379	325
